The star is where a group is joined. AFC = O=c1cc(C(F)(F)F)c2ccc(N*)cc2o1
Assays:
[1] = molecular target: T1, recombinant Casp6-R65W (from full-length Casp6-His) (human) (UniProt P55212)
T1 sequence: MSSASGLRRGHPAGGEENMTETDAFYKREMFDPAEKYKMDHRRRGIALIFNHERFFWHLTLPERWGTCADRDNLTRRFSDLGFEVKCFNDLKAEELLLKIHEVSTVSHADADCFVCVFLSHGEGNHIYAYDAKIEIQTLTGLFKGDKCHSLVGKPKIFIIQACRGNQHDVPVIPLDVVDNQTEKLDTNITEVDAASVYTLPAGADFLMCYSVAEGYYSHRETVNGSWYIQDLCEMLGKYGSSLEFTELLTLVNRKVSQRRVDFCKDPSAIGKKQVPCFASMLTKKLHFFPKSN

[2] = molecular target: T2, recombinant Casp6-WT (from full-length human Casp6-WT-6xHis-tag-C-terminus) (human) (UniProt P55212)
T2 sequence: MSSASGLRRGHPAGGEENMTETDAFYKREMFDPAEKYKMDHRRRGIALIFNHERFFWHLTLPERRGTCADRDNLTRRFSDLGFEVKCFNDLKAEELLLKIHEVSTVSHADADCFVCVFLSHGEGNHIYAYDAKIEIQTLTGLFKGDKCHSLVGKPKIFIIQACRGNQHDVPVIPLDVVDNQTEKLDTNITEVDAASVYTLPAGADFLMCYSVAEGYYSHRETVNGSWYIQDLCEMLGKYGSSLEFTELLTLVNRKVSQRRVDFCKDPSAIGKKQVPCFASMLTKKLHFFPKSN

[3] = substrate: ΔN D179 CT version of Casp6-WT (human) (UniProt P55212); assay: thermal shift assay (SYPRO Orange); 10 μM Casp6 with or without 50 μM Ac-VEID-CHO, 20 mM Tris pH 8.5, 5 mM DTT, 5x SYPRO Orange, 25 to 95 °C; ΔTm = Tm with minus Tm without Ac-VEID-CHO
[4] = molecular target: co-expressed Casp6-R65W large and small subunits (human); assay: as above
[5] = molecular target: T3, Casp6-WT lacking its pro-domain (∆Casp6-WT) (human) (UniProt P55212)
T3 sequence: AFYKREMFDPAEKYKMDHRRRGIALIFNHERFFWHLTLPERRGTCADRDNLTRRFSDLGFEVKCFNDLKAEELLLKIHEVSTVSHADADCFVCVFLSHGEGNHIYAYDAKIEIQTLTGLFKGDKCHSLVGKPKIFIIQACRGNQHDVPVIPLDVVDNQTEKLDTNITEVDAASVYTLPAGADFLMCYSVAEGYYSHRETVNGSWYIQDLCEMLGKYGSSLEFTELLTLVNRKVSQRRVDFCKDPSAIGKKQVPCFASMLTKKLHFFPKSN

B1: Ac-Val-Glu-Ile-Asp-7-Amino-4-trifluoromethylcoumarin (peptide)
peptide: Ac-VEID-{AFC}
SMILES: CC[C@H](C)[C@H](NC(=O)[C@H](CCC(=O)O)NC(=O)[C@@H](NC(C)=O)C(C)C)C(=O)N[C@@H](CC(=O)O)C(=O)Nc1ccc2c(C(F)(F)F)cc(=O)oc2c1
[1]
  KM of Ac-VEID-AFC cleavage (Michaelis-Menten fit; 20 nM Casp6, 1-300 µM Ac-VEID-AFC): 102 µM
[2]
  KM of Ac-VEID-AFC cleavage (Michaelis-Menten fit; 20 nM Casp6, 1-300 µM Ac-VEID-AFC): 39.1 µM

## Ac-VEID-aldehyde [Ac-VEID-CHO]
[3]
  increase of melting temperature with Ac-VEID-CHO (ΔTm): 7 °C
[4]
  increase of melting temperature with Ac-VEID-CHO (ΔTm): 4.6 °C

B2: recombinant proCasp6-G66R (from full-length Casp6-His) (enzyme)
chain: MSSASGLRRGHPAGGEENMTETDAFYKREMFDPAEKYKMDHRRRGIALIFNHERFFWHLTLPERRRTCADRDNLTRRFSDLGFEVKCFNDLKAEELLLKIHEVSTVSHADADCFVCVFLSHGEGNHIYAYDAKIEIQTLTGLFKGDKCHSLVGKPKIFIIQACRGNQHDVPVIPLDVVDNQTEKLDTNITEVDAASVYTLPAGADFLMCYSVAEGYYSHRETVNGSWYIQDLCEMLGKYGSSLEFTELLTLVNRKVSQRRVDFCKDPSAIGKKQVPCFASMLTKKLHFFPKSN
[5]
  reduction of the VEIDase activity (40 µM Ac-VEID-AFC) of Casp3-processed ∆Casp6-WT (0.02 mg/ml) on addition of proCasp6-G66R (0.02-0.06 mg/ml, ratios 1:1 to 3:1), not dose-dependent: 30%

Reference: PMC5849602
